From patent US20240360224A1 (ORIONIS BIOSCIENCES, published 2024)
Residue numbers refer to the chain shown, from its start. Names may count otherwise. One block for each binder: values may come before it.

How the values were obtained:
human Clec9A = target: T1, human Clec9A (human, UniProt Q6UXN8 1-241); test: flow cytometry, crude periplasmic extracts on CHO-K1 cells stably transfected with human Clec9A
T1 construct: Expressed on transfected CHO-K1, HEK293-T and HL116 cells, or native on human dendritic cells; also called hClec9A; C-type lectin domain family 9 member A
Experimental: A VHH library was constructed from an immunized of a llama. Three consecutive rounds of panning of a VHH library were performed in solution using stably transfected CHO-K cells expressing human Clec9A. The enrichment for antigen-specific phages was assessed after each round of panning by comparing the number of phagemid particles eluted from transfected cells (output) with the number of phagemid particles used for panning (input). The phage output increased about 10-fold in the 2nd round and about 10³-fold in the 3rd round, as compared to the output from the 1st round. The input phage was always about 10¹¹ and the output from first round was about 10⁸ phage particles. 285 randomly selected colonies from the 1st, 2nd and 3rd panning rounds (95 from each round) were sequenced and then grouped based on CDR3 sequences. Using crude periplasmic extracts including VHHs, 95 unique sequences were analyzed by flow cytometry for specificity to human Clec9A using CHO-K1 cells stably transfected with human Clec9A. The parental non-transfected CHO-K1 cells served as negative control cell. An irrelevant VHH was used as negative nanobody control. […] Table B below provides a description of 66 clones representing the 66 different anti-human Clec9A VHH genes. E. coli TG1 harboring recombinant phagemid pMECS containing anti-human Clec9A VHH sequences was generated and stored at […]. […]

[1] = target: T2, biotinylated human CLEC9A (human, UniProt Q6UXN8 57-241, limits assumed, biotinylated (site not stated)); test: BLI (Octet), biotinylated human CLEC9A on streptavidin sensor, VHH at 50, 100 and 200 nM, global analysis
T2 construct: Captured on a streptavidin sensor for BLI
Experimental: Affinities of the AFN's for Clec9A were determined using the bio-layer interferometry technology on an Octet system (ForteBio).

T2 sequence (Q6UXN8 57-241 limits assumed): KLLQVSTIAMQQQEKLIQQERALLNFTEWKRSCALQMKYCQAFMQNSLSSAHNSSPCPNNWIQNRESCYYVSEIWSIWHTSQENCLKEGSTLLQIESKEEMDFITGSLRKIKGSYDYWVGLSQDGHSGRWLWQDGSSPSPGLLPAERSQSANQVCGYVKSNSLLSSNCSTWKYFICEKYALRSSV
T1 sequence (Q6UXN8 whole entry, the tested form may be a part): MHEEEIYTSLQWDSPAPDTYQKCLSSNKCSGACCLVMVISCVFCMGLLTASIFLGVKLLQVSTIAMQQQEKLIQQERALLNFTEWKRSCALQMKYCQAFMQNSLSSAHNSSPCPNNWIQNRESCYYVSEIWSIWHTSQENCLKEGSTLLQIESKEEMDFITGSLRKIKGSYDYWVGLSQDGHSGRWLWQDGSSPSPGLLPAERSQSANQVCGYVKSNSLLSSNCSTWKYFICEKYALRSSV

B2: 3LEC_89_opt1 (E1D-Q5V-Q108L) (VHH)
VHH: DVQLVESGGGLVQPGGSLRLSCAASGRIFSVNAMGWYRQAPGKQRELVAAITNQGAPTYADSVKGRFTISRDNAGNTVYLQMNSLRPEDTAVYYCKAFTRGDDYWGQGTLVTVSS
notes: The entry already carries the named substitutions; pHEN6C, C-terminal his6 tag
Kd [1]: 2.2 nM
koff [1]: 0.000861 s⁻¹
kon [1]: 391000 M⁻¹ s⁻¹

B3: 3LEC_89_opt2 (E1D-Q5V-Q108L-A74S) (VHH)
VHH: B2 VHH with A74S
notes: as for B2
Kd [1]: 2.41 nM
koff [1]: 0.000817 s⁻¹
kon [1]: 338000 M⁻¹ s⁻¹

B4: 3LEC_89_opt3 (E1D-Q5V-Q108L-G75K) (VHH)
VHH: B2 VHH with G75K
notes: as for B2
Kd [1]: 2.56 nM
koff [1]: 0.00112 s⁻¹
kon [1]: 438000 M⁻¹ s⁻¹

The remaining lines, values ahead:

binding result (human Clec9A): binds
B1: 2LEC 24 (VHH)
VHH: QVQLQESGGGLVQAGGSLRLSCAASGRTFSTYAMGWFRQAPGKERGLVAAISWSGGSTYYADSVKGRFTIFRDNAENTVYLQMNSLKPEDTAVYYCAAEAEGSGREGNFYERSWYQGQGTQVTVSS
notes: Entry includes C-terminal AAA-HA-His tag (pMECS); only five His are printed in the text

Kd [1]: 2.35 nM
koff [1]: 0.000982 s⁻¹
kon [1]: 417000 M⁻¹ s⁻¹
B5: 3LEC_89_opt4 (E1D-Q5V-Q108L-A74S-G75K) (VHH)
VHH: B2 VHH with A74S, G75K
notes: as for B2
